Assays:
cell-surface KDR = cell-surface KDR (human, UniProt P35968 20-1356); experiment: cell-based or functional assay
[1] = biological target: T1, KDR-alkaline phosphatase (AP) soluble fusion protein (human, UniProt P35968 20-764); experiment: BIAcore SPR, KDR immobilized
T1 construct: Expressed in NIH 3T3 cells as in Lu et al. 2000; also called KDR-AP; full length KDR-AP; not shown: alkaline phosphatase (AP) fusion partner
Description: The binding kinetics of soluble Fab proteins to KDR were measured by surface plasmon resonance using a BIAcore biosensor (Pharmacia Biosensor). KDR-AP fusion protein was immobilized onto a sensor chip and soluble Fab proteins were injected at concentrations ranging from 1.5 nM to 100 nM. Sensorgrams were obtained at each concentration and were evaluated using a program, BIA Evaluation 2.0, to determine the rate constants kon and koff. Kd was calculated from the ratio of rate constants koff/kon.
Antibody affinity or avidity was determined by BIAcore analysis, as above. The binding kinetics, i.e., the association rate constant (kon) and the dissociation rate constant (koff), of the anti-KDR antibodies were measured and the dissociation constant, Kd, was calculated (Table 4).

[2] = biological target: T1, KDR-alkaline phosphatase (AP) soluble …; experiment: direct binding ELISA: Fab on KDR-coated plate, detected with anti-human Fab-HRP, A450
Description: (§1) In a direct binding assay, various amounts of soluble Fab proteins were added to KDR-coated 96-well Maxi-sorp microtiter plates and incubated at RT for 1 h, after which the plates were washed 3 times with PBST. The plates were then incubated at RT for 1 h with 100 μl of a rabbit anti-human Fab antibody-HRP conjugate (Jackson ImunoResearch Laboratory Inc., West Grove, Pa.). The plates were washed and developed following the procedure described above for the phage ELISA. In a competitive KDR/VEGF blocking assay, various amounts of Fab proteins were mixed with a fixed amount of KDR-AP (100 ng) and incubated at RT for 1 h. The mixtures were then transferred to 96-well microtiter plates precoated with VEGF₁₆₅ (200 ng/well) and incubated at RT for an additional 2 h, after which the plates were washed 5 times and the substrate for AP (p-nitrophenyl phosphate, Sigma) was added. Absorbance at 405 nm was measured to quantify the bound KDR-AP molecules (8).
(§2) Clone D2C6 and D2H2 are more efficient binders, followed by clone D1H4 and D1F7. All four Fabs also block KDR binding to immobilized VEGF (FIG. 2B). […] Only clone D1F7 blocks VEGF from binding to Flk-1 (FIG. 2C), with an IC₅₀ of approximately 15 nM.

[3] = biological target: T1, KDR-alkaline phosphatase (AP) soluble …; experiment: competitive blocking ELISA: Fab pre-incubated with KDR-AP, then binding of KDR-AP to immobilised VEGF165, A405
Description: FIG. 2 depicts binding to KDR, blocking of KDR/VEGF interaction and blocking of Flk-1/VEGF interaction by human anti-KDR Fab fragments. FIG. 2A: Dose-dependent binding of human anti-KDR Fab to immobilized KDR. FIG. 2B: Inhibition of KDR binding to immobilized VEGF by anti-KDR Fab. FIG. 2C: Inhibition of Flk-1 binding to immobilized VEGF by anti-KDR Fab. Various amounts of Fab proteins were incubated with a fixed amount of KDR-AP (2B) or Flk-1-AP (2C) in solution at RT for 1 h.
as §1, §2

[4] = biological target: T2, Flk-1-AP soluble fusion protein (murine, UniProt P35918 20-762); experiment: competitive blocking ELISA: Fab pre-incubated with Flk-1-AP, then binding of Flk-1-AP to immobilised VEGF165, A405
T2 construct: Soluble fusion protein from NIH 3T3 cells; also called fetal liver kinase 1; not shown: alkaline phosphatase (AP) fusion partner

[5] = biological target: T1, KDR-alkaline phosphatase (AP) soluble …; experiment: BIAcore SPR, KDR immobilized; remark: listed apart in the source
[6] = biological target: T1, KDR-alkaline phosphatase (AP) soluble …; experiment: direct binding ELISA: antibody on KDR-coated plate, detected with anti-human IgG Fc-HRP, A450
Description: (§3) FIG. 6 depicts binding to KDR and blocking of KDR/VEGF interaction by human anti-KDR antibodies. FIG. 6A: Dose-dependent binding of anti-KDR to immobilized KDR. Various amounts of antibodies were incubated at RT for 1 h in 96-well plates coated with KDR FIG. 6B: Inhibition of binding of KDR to immobilized VEGF by human anti-KDR antibodies. Various amounts of the antibodies were incubated with a fixed amount of KDR-AP in solution at RT for 1 hr.
Anti-KDR antibodies were assessed for KDR binding and blocking of VEGF binding. In the direct binding assay, various amounts of antibodies were added to KDR-coated 96-well Maxi-sorp microtiter plates (Nunc, Roskilde, Denmark) and incubated at room temperature (RT) for 1 h, after which the plates were washed 3 times with PBS containing 0.1% Tween-20. The plates were then incubated at RT for 1 h with 100 μl of a rabbit anti-human IgG Fc-HRP conjugate (Jackson ImmunoResearch Laboratory Inc., West Grove, Pa.). The plates were washed and developed as above.

[7] = biological target: T1, KDR-alkaline phosphatase (AP) soluble …; experiment: competitive blocking ELISA: antibody pre-incubated with KDR-AP, then binding of KDR-AP to immobilised VEGF165, A405
Description: as §3
The efficacy of the anti-KDR antibodies for blocking KDR from binding to VEGF was measured with a competition assay. Various amounts of antibodies were mixed with a fixed amount of KDR-AP (100 ng) and incubated at RT for 1 h. The mixtures were then transferred to 96-well microtiter plates precoated with VEGF₁₆₅ (200 ng/well) and incubated at RT for an additional 2 h, after which the plates were washed 5 times and the substrate for AP (p-nitrophenyl phosphate, Sigma) was added, followed by reading the absorbance at 405 nm to quantify the bound KDR-AP molecules. […] The IC₅₀ is approximately 0.8 to 1.0 nM for all three antibodies.

T2 sequence (P35918 20-762): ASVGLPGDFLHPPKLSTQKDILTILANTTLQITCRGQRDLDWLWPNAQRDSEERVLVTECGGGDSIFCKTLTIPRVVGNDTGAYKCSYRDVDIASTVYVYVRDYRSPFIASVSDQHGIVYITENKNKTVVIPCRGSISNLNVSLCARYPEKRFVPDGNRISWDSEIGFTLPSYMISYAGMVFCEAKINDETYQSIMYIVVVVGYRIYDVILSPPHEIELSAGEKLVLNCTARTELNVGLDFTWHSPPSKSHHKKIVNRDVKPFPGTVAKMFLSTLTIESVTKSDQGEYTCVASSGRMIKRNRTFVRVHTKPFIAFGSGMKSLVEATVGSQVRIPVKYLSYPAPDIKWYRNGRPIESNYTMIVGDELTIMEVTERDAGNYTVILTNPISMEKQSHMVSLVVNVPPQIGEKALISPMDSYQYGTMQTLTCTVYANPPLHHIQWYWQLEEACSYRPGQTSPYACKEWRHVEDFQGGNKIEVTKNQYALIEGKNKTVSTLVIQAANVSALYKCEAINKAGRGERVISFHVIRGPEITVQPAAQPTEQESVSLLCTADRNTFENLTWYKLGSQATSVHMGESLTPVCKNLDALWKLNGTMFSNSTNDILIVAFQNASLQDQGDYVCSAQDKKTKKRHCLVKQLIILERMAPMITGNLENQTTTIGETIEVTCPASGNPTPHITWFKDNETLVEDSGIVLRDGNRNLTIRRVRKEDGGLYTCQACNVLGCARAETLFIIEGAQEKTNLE
T1 sequence (P35968 20-764): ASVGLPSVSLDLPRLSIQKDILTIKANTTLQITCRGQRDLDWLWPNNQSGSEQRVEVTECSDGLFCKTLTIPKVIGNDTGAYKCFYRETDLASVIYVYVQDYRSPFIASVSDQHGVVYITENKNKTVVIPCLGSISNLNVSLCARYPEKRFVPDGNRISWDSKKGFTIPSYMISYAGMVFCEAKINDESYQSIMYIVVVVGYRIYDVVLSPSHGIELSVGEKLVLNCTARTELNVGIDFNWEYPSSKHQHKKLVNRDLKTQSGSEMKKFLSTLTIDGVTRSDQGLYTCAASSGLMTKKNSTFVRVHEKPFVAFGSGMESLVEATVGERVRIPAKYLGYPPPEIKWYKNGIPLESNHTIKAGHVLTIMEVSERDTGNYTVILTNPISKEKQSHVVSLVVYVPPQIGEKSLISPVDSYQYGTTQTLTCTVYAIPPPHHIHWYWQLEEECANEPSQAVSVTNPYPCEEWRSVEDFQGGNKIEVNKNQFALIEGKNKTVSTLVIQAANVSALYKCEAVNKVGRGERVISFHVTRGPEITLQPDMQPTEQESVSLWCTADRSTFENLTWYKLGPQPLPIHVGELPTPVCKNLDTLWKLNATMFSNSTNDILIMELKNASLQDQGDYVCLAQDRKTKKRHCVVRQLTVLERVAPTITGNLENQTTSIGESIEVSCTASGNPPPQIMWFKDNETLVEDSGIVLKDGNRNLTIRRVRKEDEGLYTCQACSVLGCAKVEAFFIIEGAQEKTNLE
cell-surface KDR, sequence (P35968 20-1356): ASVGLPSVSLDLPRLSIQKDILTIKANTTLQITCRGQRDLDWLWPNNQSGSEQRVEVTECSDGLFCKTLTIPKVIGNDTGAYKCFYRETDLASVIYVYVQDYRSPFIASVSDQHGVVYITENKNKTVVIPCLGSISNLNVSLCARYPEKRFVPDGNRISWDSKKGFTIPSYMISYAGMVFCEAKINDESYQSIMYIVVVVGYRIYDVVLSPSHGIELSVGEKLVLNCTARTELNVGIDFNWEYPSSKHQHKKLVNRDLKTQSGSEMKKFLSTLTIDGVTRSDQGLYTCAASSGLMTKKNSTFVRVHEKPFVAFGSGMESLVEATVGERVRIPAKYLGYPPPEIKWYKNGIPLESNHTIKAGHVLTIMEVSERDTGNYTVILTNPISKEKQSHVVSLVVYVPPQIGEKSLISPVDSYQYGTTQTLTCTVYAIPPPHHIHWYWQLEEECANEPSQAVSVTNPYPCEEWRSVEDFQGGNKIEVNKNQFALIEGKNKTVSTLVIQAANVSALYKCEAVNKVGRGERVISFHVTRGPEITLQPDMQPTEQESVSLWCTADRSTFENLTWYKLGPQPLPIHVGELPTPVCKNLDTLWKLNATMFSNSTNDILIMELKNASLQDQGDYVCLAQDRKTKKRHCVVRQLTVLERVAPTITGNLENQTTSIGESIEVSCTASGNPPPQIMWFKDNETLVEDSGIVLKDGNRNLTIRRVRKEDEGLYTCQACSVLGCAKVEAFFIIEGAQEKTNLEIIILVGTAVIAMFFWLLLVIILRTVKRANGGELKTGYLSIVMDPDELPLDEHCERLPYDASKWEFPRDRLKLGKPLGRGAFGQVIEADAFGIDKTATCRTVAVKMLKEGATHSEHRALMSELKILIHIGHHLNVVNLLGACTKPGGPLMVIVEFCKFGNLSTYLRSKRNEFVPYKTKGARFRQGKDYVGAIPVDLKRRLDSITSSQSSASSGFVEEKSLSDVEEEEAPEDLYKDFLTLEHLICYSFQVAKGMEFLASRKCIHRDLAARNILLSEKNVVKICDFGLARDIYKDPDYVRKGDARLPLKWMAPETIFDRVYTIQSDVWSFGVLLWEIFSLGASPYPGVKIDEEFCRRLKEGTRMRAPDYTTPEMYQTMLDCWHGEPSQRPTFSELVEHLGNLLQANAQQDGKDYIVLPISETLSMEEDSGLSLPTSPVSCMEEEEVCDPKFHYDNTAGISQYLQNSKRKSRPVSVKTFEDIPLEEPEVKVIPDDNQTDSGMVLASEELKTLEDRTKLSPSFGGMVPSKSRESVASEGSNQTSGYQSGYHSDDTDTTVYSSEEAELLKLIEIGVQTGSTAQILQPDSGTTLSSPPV

| EC50 of inhibition of VEGF-stimulated [3H]-TdR incorporation in HUVEC (cell-surface KDR) [nM] | Kd [1] [nM] | koff [1] [s⁻¹] | kon [1] [M⁻¹ s⁻¹] | EC50 (read off the curve) [2] [nM] | IC50 (read off the curve) [3] [nM] | binding result [4] | fold improvement in Kd against Hu-2C6 [5] [fold] | fold increase in overall binding avidity against Hu-1121 Fab [5] [fold] | EC50 (read off the curve) [6] [nM] | IC50 (read off the curve) [7] [nM] | fold change of Kd against the monovalent Hu-2C6 Fab [5] [fold] | Binder |
| --- | --- | --- | --- | --- | --- | --- | --- | --- | --- | --- | --- | --- |
| ~0.5 | 3.6 | 0.00055 | 171000 | ~0.7 | ~3 | no binding (tested: about 60 nM) |  |  |  |  |  | D2C6 Fab (Fab, V domains shown, Soluble human Fab from E. coli HB2151; also called Hu-2C6 Fab; Hu-2C6) VH: EVQLVQSGGGLVKPGGSLRLSCAASGFTFSSYSMNWVRQAPGKGLEWVSSISSSSSYIYYADSVKGRFTISRDNAKNSLYLQMNSLRAEDTAVYYCARVTDAFDIWGQGTMVTVSS VL: EIVMTQSPATLSLSPGERATLSCRASQSVSSYLAWYQQKPGQAPRLLIYDSSNRATGIPARFSGSGSGTDFTLTISSLEPEDFATYYCLQHNTFPPTFGQGTKVEIK |
|  | 0.11 | 3.1e-05 | 296000 |  |  |  | 33 |  |  |  |  | Hu-1121 Fab (Fab, V domains shown, see also CLM-00007) with new light chains) VH: EVQLVQSGGGLVKPGGSLRLSCAASGFTFSSYSMNWVRQAPGKGLEWVSSISSSSSYIYYADSVKGRFTISRDNAKNSLYLQMNSLRAEDTAVYYCARVTDAFDIWGQGTMVTVSS VL: DIQMTQSPSSVSASIGDRVTITCRASQGIDNWLGWYQQKPGKAPKLLIYDASNLDTGVPSRFSGSGSGTYFTLTISSLQAEDFAVYFCQQAKAFPPTFGGGTKVDIK |
|  | 0.05 | 2.5e-05 | 479000 |  |  |  |  | ~2 | ~0.3 | ~0.8 |  | IMC-1121 IgG (antibody, V domains shown) VH: EVQLVQSGGGLVKPGGSLRLSCAASGFTFSSYSMNWVRQAPGKGLEWVSSISSSSSYIYYADSVKGRFTISRDNAKNSLYLQMNSLRAEDTAVYYCARVTDAFDIWGQGTMVTVSS VL: DIQMTQSPSSVSASIGDRVTITCRASQGIDNWLGWYQQKPGKAPKLLIYDASNLDTGVPSRFSGSGSGTYFTLTISSLQAEDFAVYFCQQAKAFPPTFGGGTKVDIK |
| ~0.5 |  |  |  | ~1 | ~2 | no binding (tested: about 60 nM) |  |  |  |  |  | D1H4 Fab (Fab, V domains shown, Soluble human Fab from E. coli HB2151; also called DlH4; Hu-1H4 Fab) VH: EVQLVQSGGGLVKPGGSLRLSCAASGFTFSSYSMNWVRQAPGKGLEWVSSISSSSSYIYYADSVKGRFTISRDNAKNSLYLQMNSLRAEDTAVYYCARVTDAFDIWGQGTMVTVSS VL: QSALTQPASLSGSPGQSITISCAGTTTDLTYYDLVSWYQQHPGQAPKLVIYDGNKRPSGVSNRFSGSKSGNTASLTISGLQAEDEADYYCNSYVSSRFYVFGTGTKVTVL |
| ~0.8 |  |  |  | ~0.7 | ~2 | no binding (tested: about 60 nM) |  |  |  |  |  | D2H2 Fab (Fab, V domains shown, Soluble human Fab from E. coli HB2151; also called Hu-2H2 Fab) VH: EVQLVQSGGGLVKPGGSLRLSCAASGFTFSSYSMNWVRQAPGKGLEWVSSISSSSSYIYYADSVKGRFTISRDNAKDSLYLQMNSLRAEDTAVYYCARVTDAFDIWGQGTMVTVSS VL: DIQLTQSPSSVSASVGDRVTITCRASQGISSRLAWYQQKPGKAPKLLIYAASSLQTGVPSRFSGSGSGTDFTLTISSLQPEDFATYYCQQANRFPPTFGPGTKVDIK |
|  | 0.2 | 4.3e-05 | 212000 |  |  |  |  |  | ~0.4 | ~0.7 | ~18 | IMC-2C6 IgG (antibody, V domains shown) VH: EVQLVQSGGGLVKPGGSLRLSCAASGFTFSSYSMNWVRQAPGKGLEWVSSISSSSSYIYYADSVKGRFTISRDNAKNSLYLQMNSLRAEDTAVYYCARVTDAFDIWGQGTMVTVSS VL: EIVMTQSPATLSLSPGERATLSCRASQSVSSYLAWYQQKPGQAPRLLIYDSSNRATGIPARFSGSGSGTDFTLTISSLEPEDFATYYCLQHNTFPPTFGQGTKVEIK |
| ~15 |  |  |  |  |  |  |  |  |  |  |  | D1F7 Fab (Fab, V domains shown) VH: EVQLVQSGAEVKKPGASVKVSCKASGGTFSSYAISWVRQAPGQGLEWMGGIIPIFGTANYAQKFQGRVTFTADKSTSTAYMELRSLRSDDTAVYYCARGYDYYDSSGVASPFDYWGQGTLVTVSS VL: not shown |

Source: patent publication US20050234225A1 (Eli Lilly, published 2005)
